This note sets out measurements from publication PMC11655674.

For the data set, the target named is T1, 6xHis-CerM (Cereibacter sphaeroides WS8N) (UniProt Q3J1N9).
T1 sequence: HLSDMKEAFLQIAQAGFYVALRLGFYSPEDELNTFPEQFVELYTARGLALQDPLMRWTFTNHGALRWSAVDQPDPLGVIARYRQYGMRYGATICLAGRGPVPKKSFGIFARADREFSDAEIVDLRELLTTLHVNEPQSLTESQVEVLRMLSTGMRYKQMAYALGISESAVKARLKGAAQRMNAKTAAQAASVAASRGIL
Briefly: EMSA. The note with it: 10 mM Tris pH 7.5, 1 mM EDTA, 0.1 M KCl, 0.1 mM DTT, 5% glycerol, 0.10 mg/mL BSA, 20 min room temperature; 50 ng DNA, 50-200 ng CerM; 4% native gel in TAE pH 7.
As to “CAAAAAGACAGGTTTGTTTCAAGACAAGTTTTTCTGGATGGAATTGGACGTCGGGCGGGGTTTTGGCACACAATATGCTTGTTATCCGGGCAGGGACAGCTGGAAGATTTACGGAGACATTTCATGAAACATCCCGTCGACGCCCAC (double strand) [14710 fragment F (147 bp)]”, the binding entry was “no binding”. As for “CAGCTTGTATGAATGGACATATCCAAAAAGACAGGTTTGTTTCAAGACAAGTTTTTCTGGATGGAATTGGACGTCGGGCGGGGTTTTGGCACACAATATGCTTGTTATCCGGGCAGGGACAGCTGGAAGATTTACGGAGACATTTCATGAAACATCCCGTCGACGCCCAC (double strand) [14710 fragment B (170 bp)]”, the binding entry was “binds”.

Consider “CCCGAATATTCGCGACTTGCAAAGTTTCGGCGGCGAATTCGCTGCAAATTGCATTGCAGAATGCAAAAGACCTCAGAGGCGAGTGACGTGTCTCCCGTGCTCCCGAGGGATGATCCACAGCGGCGGACGCCGAACGAACCCAGCTTGTATGAATGGACATATC (double strand) [14710 fragment G (163 bp)]”, for which the binding result is “no binding”. As for “CCCGAATATTCGCGACTTGCAAAGTTTCGGCGGCGAATTCGCTGCAAATTGCATTGCAGAATGCAAAAGACCTCAGAGGCGAGTGACGTGTCTCCCGTGCTCCCGAGGGATGATCCACAGCGGCGGACGCCGAACGAACCCAGCTTGTATGAATGGACATATCCAAAAAGACAGGTTTGTTT (double strand) [14710 fragment I (182 bp)]”, the binding entry is recorded as “binds”. With “CCCGAATATTCGCGACTTGCAAAGTTTCGGCGGCGAATTCGCTGCAAATTGCATTGCAGAATGCAAAAGACCTCAGAGGCGAGTGACGTGTCTCCCGTGCTCCCGAGGGATGATCCACAGCGGCGGACGCCGAACGAACCCAGCTTGTATGAATGGACATATCCAAAAAGACAGGTTTGTTTCAAGACAAG (double strand) [14710 fragment D (191 bp)]” the entry was “binds”; with “GACATATCCAAAAAGACAGGTTTGTTTCAAGACAAGTTTTTCTGGATGGAATTGGACGTCGGGCGGGGTTTTGGCACACAATATGCTTGTTATCCGGGCAGGGACAGCTGGAAGATTTACGGAGACATTTCATGAAACATCCCGTCGACGCCCAC (double strand) [14710 fragment H (155 bp)]”, “binds”.

With “GCGAATTCAAGGTCACGATGATCCAGAAATATCGGCAACTTTAGATTGTATTCAGCTTCGCCTATGCGAGAGTAACTCATGATTAACCATTGGGCATCATTGTAGTTAATACCTAGGGTGGCGATGCGGAGCGCGAGTGATGAGAATACTGCTGGTGGAGGATGATCCGACCACGTCCCGCAGCATCGAATTGATGCTGACTCATGCGAACCTGAACGTCTATTGCACCGATCTCGGCGAGGACGGGATCGATCTGGCCAAGCTCTACGATTACGATCTCATCCTGCTGAGCTCGC (double strand) [ctrA control region (281 bp)]”, the binding result was “no binding”. To “GCGAATTCCGAGAGGGTTCCACGCTTCATCTTCTCATTTCGCTGGGCAGCCGATTGCGGCGCGAGGAGACCGTGCTGCCGTCCCATTCTCAAGTTGCGCAAAAGGTAAGGCGCTGGAAGGCCCGTCTTTTGAGCATCTGGTCAAAAAAATAAGTTATTACATGGGCTTGATGGGTGATCGGCTCAATCCGCGGACAAACCCTGAGGTTGAGGTGAGAGAGACCCGACTCGCGCCCGTTACCGAAAATGTGCAGATGGGAATTCGC (double strand) [15394 regulatory region (249 bp)]” belongs “binds more weakly”; to “GTGGGCGTCGACGGGATGTTTCATGAAATGTCTCCGTAAATCTTCCAGCTGTCCCTGCCCGGATAACAAGCATATTGTGTGCCAAAACCCCGCCCGACGTCCAATTCCATCCAGAAAAACTTGTCTTGA (double strand) [14710 fragment C (129 bp)]”, “no binding”.
